From US20120225828A1 (PALATIN TECHNOLOGIES, published 2012) come the findings set out here.

Bridge positions count the residues as written; N and C are the ends. Square brackets hold non-standard residues; d marks the D form. 1Nal = N[C@@H](Cc1cccc2ccccc12)C(=O)O; Cit = NC(=O)NCCC[C@H](N)C(=O)O; Nle = CCCC[C@H](N)C(=O)O; Orn = NCCC[C@H](N)C(=O)O; Dab = NCC[C@H](N)C(=O)O; Dap = NC[C@H](N)C(=O)O

This assay addresses human melanocortin-1 receptor hMCR-1 expressed by the human melanoma cell line HBL (human, UniProt Q01726 1-317). Nature of the assay: cell-based or functional assay.

human melanocortin-1 receptor hMCR-1 expressed by the human melanoma cell line HBL, sequence (Q01726 whole entry): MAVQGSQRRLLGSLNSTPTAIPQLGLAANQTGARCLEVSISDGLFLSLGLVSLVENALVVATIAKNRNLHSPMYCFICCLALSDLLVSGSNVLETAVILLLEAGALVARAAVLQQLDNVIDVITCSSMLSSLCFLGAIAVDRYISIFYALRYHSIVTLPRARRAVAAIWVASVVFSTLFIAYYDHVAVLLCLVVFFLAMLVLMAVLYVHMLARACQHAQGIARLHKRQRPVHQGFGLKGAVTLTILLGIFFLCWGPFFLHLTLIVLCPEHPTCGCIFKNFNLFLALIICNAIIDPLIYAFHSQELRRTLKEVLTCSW

B1: Ac-Nle-cyclo(Glu-His-D-Phe-Gly-Dab)-Trp-NH2 (peptide)
peptide: Ac-[Nle]EH[dF]G[Dab]W-NH2
modifications: lactam 2-6
SMILES: CCCC[C@H](NC(C)=O)C(=O)N[C@H]1CCC(=O)NCC[C@@H](C(=O)N[C@@H](Cc2c[nH]c3ccccc23)C(N)=O)NC(=O)CNC(=O)[C@@H](Cc2ccccc2)NC(=O)[C@H](Cc2c[nH]cn2)NC1=O
B1: the “MC-1 EC50 (average; cAMP HBL)” value worked out at 4 nM and the “MC-1 Emax (average; cAMP HBL)” value worked out at 59%.
Consider Ac-[Nle][Dab]H[dF]R[Dab]W-NH2 (linker 2-6 via C(:O)‑(CH2)2‑C(:O)) [Ac-Nle-cyclo(Dab-His-D-Phe-Arg-Dab)-Trp-NH2 with bridge C(═O)-(CH2)2-C(═O)], for which the “MC-1 Emax (average; cAMP HBL)” value is 92%.
As to Ac-[Nle][Dap]H[dF]R[Dap]W-NH2 (linker 2-6 via C(:O)‑(CH2)2‑C(:O)) [Ac-Nle-cyclo(Dap-His-D-Phe-Arg-Dap)-Trp-NH2 with bridge C(═O)-(CH2)2-C(═O)], the “MC-1 EC50 (average; cAMP HBL)” value came to 0.007 nM and the “MC-1 Emax (average; cAMP HBL)” value came to 70%.
For the molecule Ac-[Nle]EA[dF]R[Dab]W-NH2 (lactam 2-6) [Ac-Nle-cyclo(Glu-Ala-D-Phe-Arg-Dab)-Trp-NH2], the “MC-1 Emax (average; cAMP HBL)” value amounted to 86%.
Consider Ac-[Nle]EH[dF]R[Dap]W-OH (lactam 2-6) [Ac-Nle-cyclo(Glu-His-D-Phe-Arg-Dap)-Trp-OH], for which the “MC-1 EC50 (average; cAMP HBL)” value was found to be 0.107 nM and the “MC-1 Emax (average; cAMP HBL)” value was 81%.
In the case of Ac-[Nle]E[Dab][dF]R[Dab]W-NH2 (lactam 2-6) [Ac-Nle-cyclo(Glu-Dab-D-Phe-Arg-Dab)-Trp-NH2], the “MC-1 Emax (average; cAMP HBL)” value was found to be 108%.
The same measure, in the same setting: next, Ac-[Nle]ER[dF]R[Dab]W-NH2 (lactam 2-6) [Ac-Nle-cyclo(Glu-Arg-D-Phe-Arg-Dab)-Trp-NH2 (SEQ ID NO: 53)]: 100%.

B2: Ac-Nle-cyclo(Glu-His-D-Phe-Arg-Dab)-Lys-NH2 (peptide)
peptide: Ac-[Nle]EH[dF]R[Dab]K-NH2
modifications: lactam 2-6
SMILES: CCCC[C@H](NC(C)=O)C(=O)N[C@H]1CCC(=O)NCC[C@@H](C(=O)N[C@@H](CCCCN)C(N)=O)NC(=O)[C@H](CCCNC(=N)N)NC(=O)[C@@H](Cc2ccccc2)NC(=O)[C@H](Cc2c[nH]cn2)NC1=O
Consider B2, for which the “MC-1 EC50 (average; cAMP HBL)” value was found to be 0.175 nM and the “MC-1 Emax (average; cAMP HBL)” value amounted to 91%.
As for Ac-[Nle]ER[dF]R[Dab]W-NH2 (lactam 2-6) [Ac-Nle-cyclo(Glu-Arg-D-Phe-Arg-Dab)-Trp-NH2], the “MC-1 Emax (average; cAMP HBL)” value is 100%.

B3: Ac-Nle-cyclo(Glu-His-D-Phe-Arg-Dab)-Ala-NH2 (peptide)
peptide: Ac-[Nle]EH[dF]R[Dab]A-NH2
modifications: lactam 2-6
SMILES: CCCC[C@H](NC(C)=O)C(=O)N[C@H]1CCC(=O)NCC[C@@H](C(=O)N[C@@H](C)C(N)=O)NC(=O)[C@H](CCCNC(=N)N)NC(=O)[C@@H](Cc2ccccc2)NC(=O)[C@H](Cc2c[nH]cn2)NC1=O
Take B3: the “MC-1 EC50 (average; cAMP HBL)” value is 0.008 nM and the “MC-1 Emax (average; cAMP HBL)” value was 97%.
On to Ac-[Nle]EH[dF]R[Dab][1Nal]-NH2 (lactam 2-6) [Ac-Nle-cyclo(Glu-His-D-Phe-Arg-Dab)-Nal 1-NH2], for which the “MC-1 Emax (average; cAMP HBL)” value was 72%.

B4: Ac-Nle-cyclo(Asp-His-D-Phe-Arg-Dap)-Trp-NH2 (peptide)
peptide: Ac-[Nle]DH[dF]R[Dap]W-NH2
modifications: lactam 2-6
SMILES: CCCC[C@H](NC(C)=O)C(=O)N[C@H]1CC(=O)NC[C@@H](C(=O)N[C@@H](Cc2c[nH]c3ccccc23)C(N)=O)NC(=O)[C@H](CCCNC(=N)N)NC(=O)[C@@H](Cc2ccccc2)NC(=O)[C@H](Cc2c[nH]cn2)NC1=O
Consider B4, for which the “MC-1 EC50 (average; cAMP HBL)” value amounted to 0.195 nM and the “MC-1 Emax (average; cAMP HBL)” value was 88%.

B5: Ac-Nle-cyclo(Glu-His-D-Phe-Dab)-NH2 (peptide)
peptide: Ac-[Nle]EH[dF][Dab]-NH2
modifications: lactam 2-5
SMILES: CCCC[C@H](NC(C)=O)C(=O)N[C@H]1CCC(=O)NCC[C@@H](C(N)=O)NC(=O)[C@@H](Cc2ccccc2)NC(=O)[C@H](Cc2c[nH]cn2)NC1=O
Consider B5, for which the “MC-1 Emax (average; cAMP HBL)” value stood at 51%.
Same read-out and setting: next, Ac-[Nle]EA[dF]R[Dab]W-NH2 (lactam 2-6) [Ac-Nle-cyclo(Glu-Ala-D-Phe-Arg-Dab)-Trp-NH2 (SEQ ID NO: 52)]: 86%.

B6: Ac-Nle-cyclo(Glu-His-D-Phe-Gly-Dab)-Trp-NH2 (SEQ ID NO: 50) (peptide)
peptide: Ac-[Nle]EH[dF]G[Dab]W-NH2
modifications: lactam 2-6
SMILES: CCCC[C@H](NC(C)=O)C(=O)N[C@H]1CCC(=O)NCC[C@@H](C(=O)N[C@@H](Cc2c[nH]c3ccccc23)C(N)=O)NC(=O)CNC(=O)[C@@H](Cc2ccccc2)NC(=O)[C@H](Cc2c[nH]cn2)NC1=O
Take B6: the “MC-1 EC50 (average; cAMP HBL)” value was 4 nM and the “MC-1 Emax (average; cAMP HBL)” value turned out to be 59%.

B7: Ac-Nle-cyclo(Glu-His-D-Phe-Ala-Dab)-Trp-NH2 (peptide)
peptide: Ac-[Nle]EH[dF]A[Dab]W-NH2
modifications: lactam 2-6
SMILES: CCCC[C@H](NC(C)=O)C(=O)N[C@H]1CCC(=O)NCC[C@@H](C(=O)N[C@@H](Cc2c[nH]c3ccccc23)C(N)=O)NC(=O)[C@H](C)NC(=O)[C@@H](Cc2ccccc2)NC(=O)[C@H](Cc2c[nH]cn2)NC1=O
For the molecule B7, the “MC-1 EC50 (average; cAMP HBL)” value was determined as 0.115 nM and the “MC-1 Emax (average; cAMP HBL)” value came to 72%.

B8: Ac-Nle-cyclo(Glu-His-D-Phe-Ala-Dab)-NH2 (peptide)
peptide: Ac-[Nle]EH[dF]A[Dab]-NH2
modifications: lactam 2-6
SMILES: CCCC[C@H](NC(C)=O)C(=O)N[C@H]1CCC(=O)NCC[C@@H](C(N)=O)NC(=O)[C@H](C)NC(=O)[C@@H](Cc2ccccc2)NC(=O)[C@H](Cc2c[nH]cn2)NC1=O
Consider B8, for which the “MC-1 EC50 (average; cAMP HBL)” value stood at 44 nM and the “MC-1 Emax (average; cAMP HBL)” value came out at 73%.

B9: Ac-Nle-cyclo(Glu-His-D-Phe-Ala-Dab)-Trp-NH2 (SEQ ID NO: 51) (peptide)
peptide: Ac-[Nle]EH[dF]A[Dab]W-NH2
modifications: lactam 2-6
SMILES: CCCC[C@H](NC(C)=O)C(=O)N[C@H]1CCC(=O)NCC[C@@H](C(=O)N[C@@H](Cc2c[nH]c3ccccc23)C(N)=O)NC(=O)[C@H](C)NC(=O)[C@@H](Cc2ccccc2)NC(=O)[C@H](Cc2c[nH]cn2)NC1=O
On to B9, for which the “MC-1 EC50 (average; cAMP HBL)” value came out at 0.115 nM and the “MC-1 Emax (average; cAMP HBL)” value was 72%.
Regarding Ac-[Nle]EH[dF]R[Dap]W-NH2 (lactam 2-6) [Ac-Nle-cyclo(Glu-His-D-Phe-Arg-Dap)-Trp-NH2], the “MC-1 Emax (average; cAMP HBL)” value was found to be 91%.

B10: Ac-Nle-cyclo(Glu-His-D-Phe-Arg-Dab)-NH2 (peptide)
peptide: Ac-[Nle]EH[dF]R[Dab]-NH2
modifications: lactam 2-6
SMILES: CCCC[C@H](NC(C)=O)C(=O)N[C@H]1CCC(=O)NCC[C@@H](C(N)=O)NC(=O)[C@H](CCCNC(=N)N)NC(=O)[C@@H](Cc2ccccc2)NC(=O)[C@H](Cc2c[nH]cn2)NC1=O
As for B10, the “MC-1 EC50 (average; cAMP HBL)” value is 0.32 nM and the “MC-1 Emax (average; cAMP HBL)” value is 85%.
Consider Ac-[Nle]E[Cit][dF]R[Dab]W-NH2 (lactam 2-6) [Ac-Nle-cyclo(Glu-Cit-D-Phe-Arg-Dab)-Trp-NH2], for which the “MC-1 Emax (average; cAMP HBL)” value amounted to 97%.
On to Ac-[Nle][Dab]H[dF]R[Dap]W-NH2 (linker 2-6 via C(:O)‑(CH2)2‑C(:O)) [Ac-Nle-cyclo(Dab-His-D-Phe-Arg-Dap)-Trp-NH2 with bridge C(═O)-(CH2)2-C(═O)], for which the “MC-1 EC50 (average; cAMP HBL)” value is 0.006 nM and the “MC-1 Emax (average; cAMP HBL)” value was 78%.

B11: Ac-Nle-cyclo(Glu-His-D-Phe-Arg-Dab)-Trp-OH (peptide)
peptide: Ac-[Nle]EH[dF]R[Dab]W-OH
modifications: lactam 2-6
SMILES: CCCC[C@H](NC(C)=O)C(=O)N[C@H]1CCC(=O)NCC[C@@H](C(=O)N[C@@H](Cc2c[nH]c3ccccc23)C(=O)O)NC(=O)[C@H](CCCNC(=N)N)NC(=O)[C@@H](Cc2ccccc2)NC(=O)[C@H](Cc2c[nH]cn2)NC1=O
As to B11, the “MC-1 Emax (average; cAMP HBL)” value was determined as 79%.
Same read-out and setting: the same measure for Ac-[Nle]EK[dF]R[Dab]W-NH2 (lactam 2-6) [Ac-Nle-cyclo(Glu-Lys-D-Phe-Arg-Dab)-Trp-NH2]: 108%; for Ac-[Nle]E[Orn][dF]R[Dab]W-NH2 (lactam 2-6) [Ac-Nle-cyclo(Glu-Orn-D-Phe-Arg-Dab)-Trp-NH2]: 109%.

B12: Ac-Nle-cyclo(Glu-His-D-Phe-Arg-Dab)-NH2 (SEQ ID NO: 47) (peptide)
peptide: Ac-[Nle]EH[dF]R[Dab]-NH2
modifications: lactam 2-6
SMILES: CCCC[C@H](NC(C)=O)C(=O)N[C@H]1CCC(=O)NCC[C@@H](C(N)=O)NC(=O)[C@H](CCCNC(=N)N)NC(=O)[C@@H](Cc2ccccc2)NC(=O)[C@H](Cc2c[nH]cn2)NC1=O
Turning to B12, the “MC-1 EC50 (average; cAMP HBL)” value came out at 0.32 nM and the “MC-1 Emax (average; cAMP HBL)” value was 85%.
Taken in the same sequence, the figures for Ac-[Nle][Dap]H[dF]R[Dab]W-NH2 (linker 2-6 via C(:O)‑(CH2)2‑C(:O)) [Ac-Nle-cyclo(Dap-His-D-Phe-Arg-Dab)-Trp-NH2 with bridge C(═O)-(CH2)2-C(═O)] were 0.016 nM and 85%.

B13: Ac-Nle-cyclo(Glu-His-D-Phe-Ala-Dab)-NH2 (SEQ ID NO: 48) (peptide)
peptide: Ac-[Nle]EH[dF]A[Dab]-NH2
modifications: lactam 2-6
SMILES: CCCC[C@H](NC(C)=O)C(=O)N[C@H]1CCC(=O)NCC[C@@H](C(N)=O)NC(=O)[C@H](C)NC(=O)[C@@H](Cc2ccccc2)NC(=O)[C@H](Cc2c[nH]cn2)NC1=O
Consider B13, for which the “MC-1 EC50 (average; cAMP HBL)” value came out at 44 nM and the “MC-1 Emax (average; cAMP HBL)” value came to 73%.
